Here are results for twelve molecules from publication PMC12531337 (Nature Communications, 2023).

The stoichiometry N is the number of molecules, sites or subunits per partner or assembly.

Where a chain is given by its changes, count along the chain named. Names may count otherwise. “And” between values parts separate entries of the source, which are not always exact repeats. Equal entries are not always repeated.

To fix the notation:
T1: mCherry fusion FUS LC domain (UniProt P35637 2-214)
T1 sequence (looked up): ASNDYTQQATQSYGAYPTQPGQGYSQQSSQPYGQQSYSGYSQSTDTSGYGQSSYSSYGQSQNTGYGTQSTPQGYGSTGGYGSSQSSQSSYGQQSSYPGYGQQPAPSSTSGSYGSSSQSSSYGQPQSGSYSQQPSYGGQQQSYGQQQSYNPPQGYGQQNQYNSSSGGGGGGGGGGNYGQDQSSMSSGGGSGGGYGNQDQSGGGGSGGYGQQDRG

B1: GFP fusion ZEB2 ZnF6-8 (domain or fragment, UniProt O60315 999-1076, looked up)
chain: YACDLCDKTFQKSSSLLRHKYEHTGKRPHQCQICKKAFKHKHHLIEHSRLHSGEKPYQCDKCGKRFSHSGSYSQHMNH
B2: GFP:ZEB1-ZnF5-7 (domain or fragment, UniProt P37275 904-981, looked up)
chain: B1 chain with T9I, Q30E, Q32G, S48M
B3: GFP-fused ZnFs of KLF4 (domain or fragment)
chain: not shown
B4: GFP:ZEB2-ZnF1-4 (domain or fragment, UniProt O60315 211-334, looked up)
chain: LTCPYCDRGYKRLTSLKEHIKYRHEKNEENFSCPLCSYTFAYRTQLERHMVTHKPGTDQHQMLTQGAGNRKFKCTECGKAFKYKHHLKEHLRIHSGEKPYECPNCKKRFSHSGSYSSHISSKKC
B5: GFP:ZEB2-ZnF6-7 (domain or fragment, UniProt O60315 999-1049, looked up)
chain: YACDLCDKTFQKSSSLLRHKYEHTGKRPHQCQICKKAFKHKHHLIEHSRLH
B6: GFP:ZNF512B ZnF3-5 (domain or fragment, UniProt Q96KM6 540-653, looked up)
chain: LKCQHCRKQFKSKAGLNYHTMAEHSAKPSDAEASEGGEQEERERLRKVLKQMGRLRCPQEGCGAAFSSLMGYQYHQRRCGKPPCEVDSPSFPCTHCGKTYRSKAGHDYHVRSEH
B7: mCherry fusion hnRNPA2 LC domain F291S mutant (domain or fragment, UniProt P22626-2 181-341, looked up)
chain: MQEVQSSRSGRGGNFGFGDSRGGGGNFGPGPGSNFRGGSDGYGSGRGFGDGYNGYGGGPGGGNFGGSPGYGGGRGGYGGGGPGYGNQGGGYGGGYDNYGGGNYGSGNYNDSGNYNQQPSNYGPMKSGNFGGSRNMGGPYGGGNYGPGGSGGSGGYGGRSRY

The target in the first data set is T1, mCherry fusion FUS LC domain. As to the kind of experiment: hydrogel binding assay.
For the molecule B1, the binding result is reported as “binds”.

A further data set deals with mCherry fusion TDP43 LC domain (UniProt Q13148 262-414). Briefly: hydrogel binding assay.
mCherry fusion TDP43 LC domain, sequence (Q13148 262-414): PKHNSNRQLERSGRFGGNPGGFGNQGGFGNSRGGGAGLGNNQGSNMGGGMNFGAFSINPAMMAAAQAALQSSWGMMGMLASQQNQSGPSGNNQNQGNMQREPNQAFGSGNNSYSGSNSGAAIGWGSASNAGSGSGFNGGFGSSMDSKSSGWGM
As for B1, the binding result was “binds”.

The next data set has as its target mCherry fusion hnRNPA2 LC domain (UniProt P22626-2 181-341). Briefly: hydrogel binding assay.
In the case of YQCDKCGKRFSHSGSYSQHMNH (domain or fragment, UniProt O60315 1055-1076, looked up) [GFP:ZEB2-ZnF8], the binding result is on record as “binds”.
YACDLCDKTFQKSSSLLRHKYEH (domain or fragment, UniProt O60315 999-1021, looked up) [GFP:ZEB2-ZnF6]: the binding result is “binds”.
On to HQCQICKKAFKHKHHLIEHSRLH (domain or fragment, UniProt O60315 1027-1049, looked up) [GFP:ZEB2-ZnF7], for which the binding result is “binds”.
Consider B2, for which the binding result was “binds”.
As for B1, the binding result is on record as “binds”.
Regarding HQCQICKKAFKHKHHLIEHSRLHSGEKPYQCDKCGKRFSHSGSYSQHMNH (domain or fragment, UniProt O60315 1027-1076, looked up) [GFP:ZEB2-ZnF7-8], the binding result is listed as “binds”.
For B3, the binding result is reported as “binds”.
The same measure, in the same setting: for B4 the value was “binds”.
For FSCQFCKESFPGPIPLHQHERYLCK (domain or fragment, UniProt O60315 581-605, looked up) [GFP:ZEB2-ZnF5], the binding result is “binds”.
B5: the binding result was “binds”.
As to B6, the binding result is “binds”.

Another data set concerns the molecule itself. Briefly: AUC.
As to B7, the “stoichiometry N” value is 2 and 3.
